Test results taken from patent publication US20080213836.

T1: Z-Phe-Arg-MCA
T1 chain: FR

T2: human fibrinogen, P02671
T2 chain 1: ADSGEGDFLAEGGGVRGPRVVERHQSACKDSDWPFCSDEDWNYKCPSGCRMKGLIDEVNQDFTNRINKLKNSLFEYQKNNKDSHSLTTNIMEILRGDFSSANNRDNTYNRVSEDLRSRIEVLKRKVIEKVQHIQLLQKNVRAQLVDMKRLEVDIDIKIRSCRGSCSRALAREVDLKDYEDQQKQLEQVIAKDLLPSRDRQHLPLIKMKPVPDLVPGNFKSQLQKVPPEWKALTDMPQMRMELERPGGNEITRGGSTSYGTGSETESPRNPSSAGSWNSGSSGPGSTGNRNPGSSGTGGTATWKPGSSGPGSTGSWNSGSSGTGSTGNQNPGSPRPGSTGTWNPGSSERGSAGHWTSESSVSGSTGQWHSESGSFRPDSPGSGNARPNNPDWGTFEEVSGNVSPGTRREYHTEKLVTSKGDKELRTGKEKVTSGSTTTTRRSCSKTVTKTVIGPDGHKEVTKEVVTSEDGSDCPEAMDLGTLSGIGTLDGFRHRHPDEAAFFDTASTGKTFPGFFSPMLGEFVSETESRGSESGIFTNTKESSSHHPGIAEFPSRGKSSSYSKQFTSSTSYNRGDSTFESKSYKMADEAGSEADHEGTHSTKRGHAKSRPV
T2 chain 2: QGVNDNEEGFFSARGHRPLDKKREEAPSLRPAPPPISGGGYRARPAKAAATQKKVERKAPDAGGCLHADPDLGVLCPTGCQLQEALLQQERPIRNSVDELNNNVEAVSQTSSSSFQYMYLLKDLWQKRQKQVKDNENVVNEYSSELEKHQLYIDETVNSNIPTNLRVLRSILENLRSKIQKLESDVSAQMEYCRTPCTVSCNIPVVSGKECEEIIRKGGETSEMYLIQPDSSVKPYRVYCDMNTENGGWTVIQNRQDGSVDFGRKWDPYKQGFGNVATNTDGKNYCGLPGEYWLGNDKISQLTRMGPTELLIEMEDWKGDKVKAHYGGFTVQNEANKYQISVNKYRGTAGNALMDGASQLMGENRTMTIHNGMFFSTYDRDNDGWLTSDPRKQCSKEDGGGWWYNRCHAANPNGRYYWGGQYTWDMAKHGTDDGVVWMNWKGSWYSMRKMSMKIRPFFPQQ
T2 chain 3: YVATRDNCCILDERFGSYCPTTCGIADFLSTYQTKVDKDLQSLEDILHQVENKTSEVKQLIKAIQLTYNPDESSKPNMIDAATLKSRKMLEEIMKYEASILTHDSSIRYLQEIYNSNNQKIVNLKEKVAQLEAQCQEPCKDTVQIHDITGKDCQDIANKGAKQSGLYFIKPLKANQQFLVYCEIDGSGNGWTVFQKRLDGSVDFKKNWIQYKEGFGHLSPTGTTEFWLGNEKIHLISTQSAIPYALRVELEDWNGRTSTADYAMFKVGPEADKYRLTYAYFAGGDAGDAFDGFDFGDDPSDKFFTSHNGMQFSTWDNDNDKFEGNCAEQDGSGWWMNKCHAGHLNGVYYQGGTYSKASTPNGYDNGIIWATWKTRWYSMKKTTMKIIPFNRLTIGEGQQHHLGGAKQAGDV

T3: Boc-Glu(OBzl)-Ala-Arg-MCA
T3 chain: EAR

T4: human high-molecular-weight (HMW) kininogen, P01042
T4 chain: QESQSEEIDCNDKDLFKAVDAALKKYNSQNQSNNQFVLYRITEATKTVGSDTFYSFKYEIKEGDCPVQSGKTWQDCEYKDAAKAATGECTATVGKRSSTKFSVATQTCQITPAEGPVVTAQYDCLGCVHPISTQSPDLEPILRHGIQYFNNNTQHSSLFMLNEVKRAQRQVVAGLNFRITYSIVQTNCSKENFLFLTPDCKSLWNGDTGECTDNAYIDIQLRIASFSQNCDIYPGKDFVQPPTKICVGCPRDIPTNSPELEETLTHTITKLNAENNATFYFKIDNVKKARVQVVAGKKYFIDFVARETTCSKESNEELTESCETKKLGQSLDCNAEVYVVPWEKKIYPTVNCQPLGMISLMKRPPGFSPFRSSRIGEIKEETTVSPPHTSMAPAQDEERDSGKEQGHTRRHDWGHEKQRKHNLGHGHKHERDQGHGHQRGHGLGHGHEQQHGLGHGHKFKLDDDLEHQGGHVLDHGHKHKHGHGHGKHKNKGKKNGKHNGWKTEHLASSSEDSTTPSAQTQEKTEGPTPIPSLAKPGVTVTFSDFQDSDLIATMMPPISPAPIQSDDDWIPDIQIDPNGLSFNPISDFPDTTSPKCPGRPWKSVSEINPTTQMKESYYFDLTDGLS

T5: Gly-Asp-Asp-Asp-Asp-Lys-β-naphthylamide
T5 chain: GDDDDK

T6: Pro-Phe-Arg-MCA
T6 chain: PFR


Tests used:
Z-Phe-Arg-MCA = molecular target: T1, Z-Phe-Arg-MCA
human fibrinogen, P02671 = molecular target: T2, human fibrinogen, P02671
[1] = molecular target: T3, Boc-Glu(OBzl)-Ala-Arg-MCA
[2] = molecular target: T4, human high-molecular-weight (HMW) …
[3] = molecular target: T5, Gly-Asp-Asp-Asp-Asp-Lys-β-naphthylamide
Pro-Phe-Arg-MCA = molecular target: T6, Pro-Phe-Arg-MCA
[4] = molecular target: recombinant fusion protein of Medaka trypsinogen
[5] = molecular target: Human plasma fibronectin, P02751
Sequence of Human plasma fibronectin, P02751 (P02751 other isoform, or with tags, fused parts or gaps): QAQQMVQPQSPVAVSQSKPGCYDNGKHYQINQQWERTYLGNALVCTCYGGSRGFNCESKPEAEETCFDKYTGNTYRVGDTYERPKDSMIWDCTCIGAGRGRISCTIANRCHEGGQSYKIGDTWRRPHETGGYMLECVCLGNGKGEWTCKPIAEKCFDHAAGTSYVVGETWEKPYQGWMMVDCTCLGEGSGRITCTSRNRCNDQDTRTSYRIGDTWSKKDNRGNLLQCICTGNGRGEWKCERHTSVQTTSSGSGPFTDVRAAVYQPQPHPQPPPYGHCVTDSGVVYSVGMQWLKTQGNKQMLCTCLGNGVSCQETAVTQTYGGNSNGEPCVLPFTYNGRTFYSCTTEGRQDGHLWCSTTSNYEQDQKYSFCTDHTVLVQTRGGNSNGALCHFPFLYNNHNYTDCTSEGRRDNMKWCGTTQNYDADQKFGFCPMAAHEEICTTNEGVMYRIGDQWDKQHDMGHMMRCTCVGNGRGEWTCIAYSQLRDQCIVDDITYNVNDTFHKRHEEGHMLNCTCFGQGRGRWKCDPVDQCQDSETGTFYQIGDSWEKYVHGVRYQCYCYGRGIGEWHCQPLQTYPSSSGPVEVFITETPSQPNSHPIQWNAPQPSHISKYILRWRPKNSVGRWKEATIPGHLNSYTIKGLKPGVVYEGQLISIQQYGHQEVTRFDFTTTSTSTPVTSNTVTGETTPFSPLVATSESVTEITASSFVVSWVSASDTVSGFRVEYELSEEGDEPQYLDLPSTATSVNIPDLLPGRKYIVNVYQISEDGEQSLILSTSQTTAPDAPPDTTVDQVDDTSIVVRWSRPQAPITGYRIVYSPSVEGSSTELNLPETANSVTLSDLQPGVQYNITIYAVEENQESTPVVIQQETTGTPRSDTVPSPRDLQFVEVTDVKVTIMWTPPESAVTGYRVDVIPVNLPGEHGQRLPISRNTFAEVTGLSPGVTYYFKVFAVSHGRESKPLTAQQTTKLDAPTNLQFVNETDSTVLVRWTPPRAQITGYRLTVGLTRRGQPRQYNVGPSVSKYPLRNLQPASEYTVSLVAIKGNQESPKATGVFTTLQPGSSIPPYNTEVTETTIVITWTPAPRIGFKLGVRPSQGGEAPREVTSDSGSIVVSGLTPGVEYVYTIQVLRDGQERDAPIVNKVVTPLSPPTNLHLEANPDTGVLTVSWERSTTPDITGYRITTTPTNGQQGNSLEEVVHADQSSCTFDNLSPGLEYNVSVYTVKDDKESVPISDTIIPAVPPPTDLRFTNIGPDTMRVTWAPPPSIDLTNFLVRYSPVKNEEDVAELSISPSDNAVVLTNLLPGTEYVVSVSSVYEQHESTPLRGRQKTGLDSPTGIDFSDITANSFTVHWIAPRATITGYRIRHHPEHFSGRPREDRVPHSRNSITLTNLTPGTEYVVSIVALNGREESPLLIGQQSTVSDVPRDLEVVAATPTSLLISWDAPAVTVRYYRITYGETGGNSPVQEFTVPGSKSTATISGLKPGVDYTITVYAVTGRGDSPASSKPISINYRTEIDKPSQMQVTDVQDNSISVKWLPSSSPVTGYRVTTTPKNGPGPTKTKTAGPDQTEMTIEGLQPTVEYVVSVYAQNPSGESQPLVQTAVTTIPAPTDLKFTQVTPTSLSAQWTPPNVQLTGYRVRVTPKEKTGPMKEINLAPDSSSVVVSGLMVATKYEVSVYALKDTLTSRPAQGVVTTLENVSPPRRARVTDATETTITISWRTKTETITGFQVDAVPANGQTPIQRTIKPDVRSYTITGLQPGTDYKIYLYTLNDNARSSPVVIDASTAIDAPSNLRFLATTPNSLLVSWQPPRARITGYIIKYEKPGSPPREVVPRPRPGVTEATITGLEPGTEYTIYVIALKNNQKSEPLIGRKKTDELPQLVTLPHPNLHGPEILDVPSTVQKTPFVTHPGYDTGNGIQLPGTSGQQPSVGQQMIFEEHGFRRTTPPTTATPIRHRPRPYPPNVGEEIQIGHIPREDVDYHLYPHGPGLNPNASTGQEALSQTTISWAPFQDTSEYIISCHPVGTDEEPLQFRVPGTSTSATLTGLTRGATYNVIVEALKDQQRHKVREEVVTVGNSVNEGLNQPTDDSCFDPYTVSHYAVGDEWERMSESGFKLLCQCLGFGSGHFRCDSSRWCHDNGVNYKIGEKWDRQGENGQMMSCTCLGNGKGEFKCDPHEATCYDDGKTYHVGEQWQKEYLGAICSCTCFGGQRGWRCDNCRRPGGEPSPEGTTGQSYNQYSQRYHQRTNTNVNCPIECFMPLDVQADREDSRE

| Protein | Km (Z-Phe-Arg-MCA) [µM] | enzyme activity against wild-type (Z-Phe-Arg-MCA) | kcat (Z-Phe-Arg-MCA) [s⁻¹] | kcat/Km (mM^-1 · min^-1) (Z-Phe-Arg-MCA) | nonspecific proteolytic activity (SDS-PAGE) (human fibrinogen, P02671) | Km [1] [µM] | enzyme activity against wild-type [1] | kcat [1] [s⁻¹] | kcat/Km (mM^-1 · min^-1) [1] | nonspecific proteolytic activity (SDS-PAGE) [2] | Km [3] [µM] | enzyme activity against wild-type [3] | kcat [3] [s⁻¹] | kcat/Km (mM^-1 · min^-1) [3] | hydrolysis (mouse laminin) | Km (Pro-Phe-Arg-MCA) [µM] | enzyme activity against wild-type (Pro-Phe-Arg-MCA) | kcat (Pro-Phe-Arg-MCA) [s⁻¹] | kcat/Km (mM^-1 · min^-1) (Pro-Phe-Arg-MCA) | activation of trypsinogen [4] | also measured |
| --- | --- | --- | --- | --- | --- | --- | --- | --- | --- | --- | --- | --- | --- | --- | --- | --- | --- | --- | --- | --- | --- |
| Medaka EP-1 serine protease domain mutant K63R (protein) VVGGVNAEKGAWPWMVSLHWRGRHGCGASLIGRDWLLTAAHCVYGRNTHLQYWSAVLGLHAQSSMNSQEVQIRQVDRIIINKNYNRRTKEADIAMMHLQQPVNFTEWVLPVCLASEDQHFPAGRRCFIAGWGRDAEGGSLPDILQEAEVPLVDQDECQRLLPEYTFTSSMLCAGYPEGGVDSCQGDSGGPLMCLEDARWTLIGVTSFGVGCGRPERPGAYARVSAFTSWIAETRRSSFSDLD | 100 | consistently resulted in reduced enzyme activity for synthetic peptide substrates | 0.0233 | 14 | The mutant proteases had lower nonspecific proteolytic activity for ... human fibrinogen | 1200 | consistently resulted in reduced enzyme activity for synthetic peptide substrates | 0.2 | 10 | The mutant proteases had lower nonspecific proteolytic activity for human HMW kininogen | 200 | consistently resulted in reduced enzyme activity for synthetic peptide substrates | 3.5 | 1100 | Neither human fibronectin nor laminin was hydrolyzed by the mutants (data not shown) | 1100 | consistently resulted in reduced enzyme activity for synthetic peptide substrates | 0.183 | 10 | K63R converted to trypsin as fast as the wild type enzyme | conversion of trypsinogen to active enzyme [4]: A total of 12 mutants could convert the recombinant Medaka trypsinogen to its active enzyme (data not shown); hydrolysis [5]: Neither human fibronectin nor laminin was hydrolyzed by the mutants (data not shown) |
| Medaka EP-1 serine protease domain mutant P193E (protein) VVGGVNAEKGAWPWMVSLHWRGRHGCGASLIGRDWLLTAAHCVYGKNTHLQYWSAVLGLHAQSSMNSQEVQIRQVDRIIINKNYNRRTKEADIAMMHLQQPVNFTEWVLPVCLASEDQHFPAGRRCFIAGWGRDAEGGSLPDILQEAEVPLVDQDECQRLLPEYTFTSSMLCAGYEEGGVDSCQGDSGGPLMCLEDARWTLIGVTSFGVGCGRPERPGAYARVSAFTSWIAETRRSSFSDLD | 200 | consistently resulted in reduced enzyme activity for synthetic peptide substrates | 0.0283 | 9 | The mutant proteases had lower nonspecific proteolytic activity for ... human fibrinogen | 200 | consistently resulted in reduced enzyme activity for synthetic peptide substrates | 0.0383 | 12 | The mutant proteases had lower nonspecific proteolytic activity for human HMW kininogen | 400 | consistently resulted in reduced enzyme activity for synthetic peptide substrates | 4.83 | 730 | Neither human fibronectin nor laminin was hydrolyzed by the mutants (data not shown) | 1000 | consistently resulted in reduced enzyme activity for synthetic peptide substrates | 0.45 | 27 | the other mutants activated trypsinogen at a reduced rate | conversion of trypsinogen to active enzyme [4]: A total of 12 mutants could convert the recombinant Medaka trypsinogen to its active enzyme (data not shown); hydrolysis [5]: Neither human fibronectin nor laminin was hydrolyzed by the mutants (data not shown) |
| Medaka EP-1 serine protease domain mutant T105E (protein) VVGGVNAEKGAWPWMVSLHWRGRHGCGASLIGRDWLLTAAHCVYGKNTHLQYWSAVLGLHAQSSMNSQEVQIRQVDRIIINKNYNRREKEADIAMMHLQQPVNFTEWVLPVCLASEDQHFPAGRRCFIAGWGRDAEGGSLPDILQEAEVPLVDQDECQRLLPEYTFTSSMLCAGYPEGGVDSCQGDSGGPLMCLEDARWTLIGVTSFGVGCGRPERPGAYARVSAFTSWIAETRRSSFSDLD | 100 | consistently resulted in reduced enzyme activity for synthetic peptide substrates | 0.0333 | 20 | The mutant proteases had lower nonspecific proteolytic activity for ... human fibrinogen | 1300 | consistently resulted in reduced enzyme activity for synthetic peptide substrates | 0.183 | 9 | The mutant proteases had lower nonspecific proteolytic activity for human HMW kininogen | 400 | consistently resulted in reduced enzyme activity for synthetic peptide substrates | 4.33 | 650 | Neither human fibronectin nor laminin was hydrolyzed by the mutants (data not shown) | 1300 | consistently resulted in reduced enzyme activity for synthetic peptide substrates | 0.267 | 12 | the other mutants activated trypsinogen at a reduced rate | conversion of trypsinogen to active enzyme [4]: A total of 12 mutants could convert the recombinant Medaka trypsinogen to its active enzyme (data not shown); hydrolysis [5]: Neither human fibronectin nor laminin was hydrolyzed by the mutants (data not shown) |
